Data on 37 molecules can be found in patent US20100004432, “APTAMER AGAINST MIDKINE AND USE THEREOF” (RIBOMIC INC., published 2010).

The target in data set [1] is T1, midkine (full-length) (Homo sapiens, UniProt P21741 P21741:23-143).
T1 sequence: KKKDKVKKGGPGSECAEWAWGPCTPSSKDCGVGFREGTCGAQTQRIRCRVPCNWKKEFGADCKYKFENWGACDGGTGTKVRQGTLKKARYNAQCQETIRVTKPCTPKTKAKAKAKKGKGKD
The data set is described as follows: cell_activity; 500 nM RNA. Particulars: tags: expressed in yeast. The procedure:
Chem. 276 (19), 15868-15875, 2001). […] 30 μL of 1.5 μM midkine was applied to the outer surface of the membrane of Chemotaxicell (membrane pore diameter 8 μm, manufactured by Kurabo) to immobilize the midkine to the outer surface of the membrane. The midkine-immobilized Chemotaxicell was placed on a 24-well culture plate containing 500 μL of a medium (supplemented with 0.3% bovine serum albumin, Dulbecco's Modified Eagle's medium) supplemented with each RNA aptamer added thereto at 100 nM. 200 μL of UMR106 cells were placed in the inner layer of the Chemotaxicell chamber at a density of 1×10⁶ cells/mL, and cultured at 37° C. for 4 hours. The cells remaining in the inner layer of the Chemotaxicell chamber were removed, and the cells that had infiltrated and adhered to the midkine-applied surface were fixed with methanol. The Chemotaxicell chamber was immersed in a 1% aqueous solution of Crystal Violet for 30 minutes to stain the cells. After the Chemotaxicell chamber was washed with distilled water and dried, the pigment was extracted with a mixed solution of 200 μL of 1% SDS and 1% triton X100. 150 μL of the extract was transferred to a 96-well microplate, and its absorbance at 590 nm was determined.
(§1) The aptamer shown by SEQ ID NO:4 is 77 nucleotides long, having the 2′ position of the ribose of the pyrimidine nucleotide thereof fluoro-substituted. To enable the chemical synthesis, to reduce the toxicity, and to improve the stability in the blood, miniaturization and stabilization of this aptamer were performed. The operations of miniaturization and stabilization were performed on the basis of the secondary structure estimated by the MFOLD program, and the activity was evaluated by a cell migration inhibition experiment. In the cell migration inhibition experiment, the RNA concentration was 100 nM or 500 nM. Since some errors occur in experimental results depending on cell condition, a previously assayed sample was included as a positive control in each measurement.

Data set [2] concerns the target T1, midkine (full-length). The data set is described as follows: cell_activity; 500 nM RNA. Particulars: tags: expressed in yeast. The procedure: 30 μL of 1.5 μM midkine was applied to the outer surface of the membrane of Chemotaxicell (membrane pore diameter 8 μm, manufactured by Kurabo) to immobilize the midkine to the outer surface of the membrane. The midkine-immobilized Chemotaxicell was placed on a 24-well culture plate containing 500 μL of a medium (supplemented with 0.3% bovine serum albumin, Dulbecco's Modified Eagle's medium) supplemented with each RNA aptamer added thereto at 100 nM. 200 μL of UMR106 cells were placed in the inner layer of the Chemotaxicell chamber at a density of 1×10⁶ cells/mL, and cultured at 37° C. for 4 hours. The cells remaining in the inner layer of the Chemotaxicell chamber were removed, and the cells that had infiltrated and adhered to the midkine-applied surface were fixed with methanol. The Chemotaxicell chamber was immersed in a 1% aqueous solution of Crystal Violet for 30 minutes to stain the cells. After the Chemotaxicell chamber was washed with distilled water and dried, the pigment was extracted with a mixed solution of 200 μL of 1% SDS and 1% triton X100. 150 μL of the extract was transferred to a 96-well microplate, and its absorbance at 590 nm was determined.
as §1, with “NO:5” for “NO:4”, “2′-position” for “2′ position”, “nucleotide” for “nucleotide thereof”, “The RNA concentration in” for “In”, “experiment” for “experiment, the RNA concentration”
This is another data set of the same source.

Substitutions are numbered along the chain they refer to.

B1: SEQ ID NO:11 (ssRNA)
RNA: GGGAGAGGAGAAGAGGAACGUGCUCUGCACGAGGAGUAGCCGGAAAGAAGGCGGCGUGCAGAGGACAGGAAUGAGGA
modifications: 2'-F pyrimidines
Turning to B1, in data set [1], the activity is 100 % of SEQ 4 inhibition.

B2: SEQ ID NO:12 (ssRNA)
RNA: GGGAGAGGAGAAGAGGAACGCUGCACGAGGAGUAGCCGGAAAGAAGGCGGCGUGCAGC
modifications: 2'-F pyrimidines
On to B2, for which the activity in data set [1] is 100 % of SEQ 4 inhibition.

B3: SEQ ID NO:59 (ssRNA)
RNA: GGGUGCACAGGGGUUGGUGUCGGGUGCAC
modifications: 2'-F pyrimidines
Consider B3, for which the activity in data set [2] is 53 % of SEQ 40 inhibition.

B4: SEQ ID NO:60 (ssRNA)
RNA: GGGAAGGAGUGCACAGGGGUUGGUGUCGGGUGCAC
modifications: 2'-F pyrimidines
Turning to B4, in data set [2], the activity is 70 % of SEQ 40 inhibition.

B5: SEQ ID NO:10 (ssRNA)
RNA: GGGAGAGGAGAAGAGGAACGUGCUCUGUACGAGGAGUAGCCGAAAGGCGGUGUGUAGAGGACAGGAAUGAGGA
modifications: 2'-F pyrimidines
For the molecule B5, the activity in data set [1] was 81 % of SEQ 4 inhibition.

B6: SEQ ID NO:8 (ssRNA)
RNA: GGGAGAGGAGAAGAGGAACGCUGUACGAGGAGUAGCCGGAAAGAAGGCGGUGUGUAGCAGGAAUGAGGA
modifications: 2'-F pyrimidines
For B6, the activity in data set [1] is 100 % of SEQ 4 inhibition.

B7: SEQ ID NO:6 (ssRNA)
RNA: GGGAGAGGAGAAGAGGAACGUGCUCUGUACGAGGAGUAGCCGGAAAGAAGGCGGUGUGUAGAGGACA
modifications: 2'-F pyrimidines
For the molecule B7, the activity in data set [1] is 110 % of SEQ 4 inhibition.

B8: SEQ ID NO:17 (ssRNA)
RNA: GGGAGAGGAACGCUACGAGGAGUAGCCGGAAAGAAGGCGGCGUAGC
modifications: 2'-F pyrimidines
As for B8, the activity in data set [1] was 68 % of SEQ 4 inhibition.

B9: SEQ ID NO:9 (ssRNA)
RNA: GGGAGAGGAGAAGAGGAACGUGCUCUGUACGCCGGAAAGAAGGUGUGUAGAGGACAGGAAUGAGGA
modifications: 2'-F pyrimidines
For B9, the activity in data set [1] is 57 % of SEQ 4 inhibition.

B10: SEQ ID NO:16 (ssRNA)
RNA: GGGAGAGGAGAAGAGGAACGCUGCACGAGGGUAGCCGGAAAGAAGGCGGCGUGCAGC
modifications: 2'-F pyrimidines
B10: in data set [1], the activity was 61 % of SEQ 4 inhibition.

B11: SEQ ID NO:61 (ssRNA)
RNA: GGGAAGGAGGAAGUGCACAGGGGUUGGUGUCGGGUGCAC
modifications: 2'-F pyrimidines
Turning to B11, the activity in data set [2] was 100 % of SEQ 40 inhibition.

B12: SEQ ID NO:70 (ssRNA)
RNA: B11 RNA with U24A
modifications: 2'-F pyrimidines; 2'-OMe on part of purines (5' strand A, stem purines, loop G, A24)
B12: the activity in data set [2] was 110 % of SEQ 40 inhibition.

B13: SEQ ID NO:62 (ssRNA)
RNA: B11 RNA with A5G, G6A, A8G, G9A
modifications: 2'-F pyrimidines
Regarding B13, in data set [2], the activity is 44 % of SEQ 40 inhibition.

B14: SEQ ID NO:68 (ssRNA)
RNA: B11 RNA with U28A
modifications: 2'-F pyrimidines; 2'-OMe on part of purines (5' strand A, stem purines, loop G, A28)
In the case of B14, the activity in data set [2] was 72 % of SEQ 40 inhibition.

B15: SEQ ID NO:69 (ssRNA)
RNA: B11 RNA with U25A
modifications: 2'-F pyrimidines; 2'-OMe on part of purines (5' strand A, stem purines, loop G, A25)
In the case of B15, the activity in data set [2] was 60 % of SEQ 40 inhibition.

B16: SEQ ID NO:15 (ssRNA)
RNA: GGGAGAGGAGAAGAGGAACGCUGCACGAGGAGUAGCCGGAAAGGGCGGCGUGCAGC
modifications: 2'-F pyrimidines
Turning to B16, in data set [1], the activity was 75 % of SEQ 4 inhibition.

B17: SEQ ID NO:66 (ssRNA)
RNA: GGAAGGAGGAAGUGCACAGGGGUUGGUGUCGGGUGCAC
modifications: g(F)g(F)a(M)a(M)g(F)g(F)a(M)g(F)g(F)a(M)a(M)g(M)u(F)g(M)c(F)a(M)c(F)a(M)gg(M)g(M)g(M)u(F)u(F)g(M)g(M)u(F)g(M)u(F)c(F)g(F)g(F)g(M)u(F)g(M)c(F)a(M)c(F); F=2'-F M=2'-OMe
For B17, the activity in data set [2] was 51 % of SEQ 40 inhibition.

B18: SEQ ID NO:67 (ssRNA)
RNA: B17 RNA
modifications: gga(M)a(M)gga(M)gga(M)a(M)g(M)u(F)g(M)c(F)a(M)c(F)aggg(M)g(M)u(F)u(F)g(M)g(M)u(F)g(M)u(F)c(F)gggu(F)g(M)c(F)a(M)c(F); F=2'-F M=2'-OMe
For B18, in data set [2], the activity was 110 % of SEQ 40 inhibition.

B19: SEQ ID NO:47 (ssRNA)
RNA: GGGAGAGGAGAAGAGGAAGUGUGCACAGGGGUGGUGUCGGGUGCAUAC
modifications: 2'-F pyrimidines
On to B19, for which, in data set [2], the activity was 84 % of SEQ 40 inhibition.

B20: SEQ ID NO:48 (ssRNA)
RNA: B19 RNA with G33U
modifications: 2'-F pyrimidines
As for B20, the activity in data set [2] was 60 % of SEQ 40 inhibition.

B21: SEQ ID NO:49 (ssRNA)
RNA: B19 RNA with G33U, U35G
modifications: 2'-F pyrimidines
Regarding B21, in data set [2], the activity was 69 % of SEQ 40 inhibition.

B22: SEQ ID NO:46 (ssRNA)
RNA: GGGAGAGGAGAAGAGGAAGUGCGCGCAGGGGUUGGUGUCGGGCGCGUAC
modifications: 2'-F pyrimidines
Turning to B22, the activity in data set [2] is 92 % of SEQ 40 inhibition.

B23: SEQ ID NO:54 (ssRNA)
RNA: GGGAGAGGAGAAGAGGAAGUGCACAGGGGUUGGUGUCGGGUGCAC
modifications: 2'-F pyrimidines; 5' single strand (nt 1-18) all G 2'-F and all A 2'-OMe
For B23, in data set [2], the activity is 100 % of SEQ 40 inhibition.

B24: SEQ ID NO:63 (ssRNA)
RNA: B23 RNA with A25C, G26C
modifications: 2'-F pyrimidines
In the case of B24, in data set [2], the activity was 97 % of SEQ 40 inhibition.

B25: SEQ ID NO:45 (ssRNA)
RNA: B23 RNA
modifications: 2'-F pyrimidines
Regarding B25, the activity in data set [2] is 100 % of SEQ 40 inhibition.

B26: SEQ ID NO:13 (ssRNA)
RNA: GGGAGAGGAACGCUGCACGAGGAGUAGCCGGAAAGAAGGCGGCGUGCAGC
modifications: 2'-F pyrimidines
Consider B26, for which the activity in data set [1] was 100 % of SEQ 4 inhibition.

B27: SEQ ID NO:51 (ssRNA)
RNA: GGGAAGGAGAGAGGAAGUGCACAGGGGUUGGUGUCGGGUGCACAGUAUAAG
modifications: 2'-F pyrimidines
As for B27, in data set [2], the activity is 100 % of SEQ 40 inhibition.

B28: SEQ ID NO:53 (ssRNA)
RNA: B27 RNA with G9A
modifications: 2'-F pyrimidines
In the case of B28, the activity in data set [2] is 100 % of SEQ 40 inhibition.

B29: SEQ ID NO:52 (ssRNA)
RNA: B27 RNA with G3A, A5G, G7A, A8G, G9A
modifications: 2'-F pyrimidines
Consider B29, for which the activity in data set [2] is 100 % of SEQ 40 inhibition.

B30: SEQ ID NO:55 (ssRNA)
RNA: GGGAGAGGAGGAGGAAGUGCACAGGGGUUGGUGUCGGGUGCAC
modifications: 2'-F pyrimidines
As for B30, the activity in data set [2] is 100 % of SEQ 40 inhibition.

B31: SEQ ID NO:57 (ssRNA)
RNA: B30 RNA with G11A, G14A
modifications: 2'-F pyrimidines
On to B31, for which the activity in data set [2] was 100 % of SEQ 40 inhibition.

B32: SEQ ID NO:50 (ssRNA)
RNA: B30 RNA with G5A, A6G, G8A, G10A
modifications: 2'-F pyrimidines
Regarding B32, the activity in data set [2] was 91 % of SEQ 40 inhibition.

B33: SEQ ID NO:58 (ssRNA)
RNA: B30 RNA with G11A, G14A, A15G, A16G
modifications: 2'-F pyrimidines
For B33, in data set [2], the activity was 100 % of SEQ 40 inhibition.

B34: SEQ ID NO:56 (ssRNA)
RNA: B30 RNA with G11A
modifications: 2'-F pyrimidines
For B34, the activity in data set [2] was 100 % of SEQ 40 inhibition.

B35: SEQ ID NO:14 (ssRNA)
RNA: GGGAGAGGAGAAGAGGAACGCUACGAGGAGUAGCCGGAAAGAAGGCGGCGUAGC
modifications: 2'-F pyrimidines
For B35, the activity in data set [1] was 100 % of SEQ 4 inhibition.

B36: SEQ ID NO:7 (ssRNA)
RNA: GGGAACGUGCUCUGUACGAGGAGUAGCCGGAAAGAAGGCGGUGUGUAGAGGACAGGAAUGAGGA
modifications: 2'-F pyrimidines
Consider B36, for which the activity in data set [1] was 91 % of SEQ 4 inhibition.

B37: SEQ ID NO:44 (ssRNA)
RNA: GGGAGAGGAGAAGAGGAAGUUGCACAGGGGUUGGUGUCGGGUGCAAC
modifications: 2'-F pyrimidines
Consider B37, for which, in data set [2], the activity was 100 % of SEQ 40 inhibition.
